Results as given in US20050282743A1 (ARBOR VITA, published 2005).

Tests used:
[1] = target: HPV E6 #35 (cysteine-free) (HPV strain 35); experiment: G assay titration, PDZ 5 ug/ml
[2] = target: HPV E6 #35 (cysteine-free) (HPV strain 35); experiment: G assay titration, PDZ 0.5 ug/ml
[3] = target: HPV E6 #66 (cysteine-free) (HPV strain 66); experiment: G assay titration, PDZ 5 ug/ml
[4] = target: HPV E6 #66 (cysteine-free) (HPV strain 66); experiment: G assay titration, PDZ 0.5 ug/ml
HPV E6 33 (modified) = target: T1, HPV E6 33 (modified) (HPV strain 33); experiment: G assay titration, PDZ 0.5 ug/ml
T1 construct: also called AA72.1

[5] = target: HPV E6 #66 (cysteine-free) (HPV strain 66); experiment: G assay titration, PDZ 1 ug/ml
[6] = target: HPV E6 #57 (cysteine-free) (HPV strain 57); experiment: G' assay; Classification 0 = A450 nm 0, not found to interact
HPV E6 77 (modified) = target: T2, HPV E6 77 (modified) (HPV strain 77); experiment: as above
T2 construct: also called AA78.1

HPV E6 58 (modified) [7] = target: T3, HPV E6 58 (modified) (HPV strain 58); experiment: G assay titration, PDZ 0.5 ug/ml
T3 construct: also called AA75.1

HPV E6 58 (modified) [8] = target: T3, HPV E6 58 (modified); experiment: G assay titration, PDZ 3 ug/ml
HPV E6 58 (modified) [9] = target: T3, HPV E6 58 (modified); experiment: G assay titration, PDZ 5 ug/ml

B1: GST-FLJ00011 PDZ domain 1 (other, not shown: a dimerising Fc or GST)
chain: KNPSGELKTVTLSKMKQSLGISISGGIESKVQPMVKIEKIFPGGAAFLSGALQAGFELVAVDGENLEQVTHQRAVDTIRRAYRNKAREPMELVVRVPGPSPRPSPSD
[1]
  Kd: 0.35 µM

B2: GST-KIAA0807(S) PDZ domain 1 (other, not shown: a dimerising Fc or GST)
chain: ISALGSMRPPIIIHRAGKKYGFTLRAIRVYMGDSDVYTVHHMVWHVEDGGPASEAGLRQGDLITHVNGEPVHGLVHTEVVELILKSGNKVAISTTPLENSS
[2]
  Kd: 0.1 µM
[3]
  Kd: 5 µM

B3: GST-NeDLG PDZ domains 1, 2 (other, not shown: a dimerising Fc or GST)
chain: YEEIVLERGNSGLGFSIAGGIDNPHVPDDPGIFITKIIPGGAAAMDGRLGVNDCVLRVNEVDVSEVVHSRAVEALKEAGPVVRLVVRRRQPPPETIMEVNLLKGPKGLGFSIAGGIGNQHIPGDNSIYITKIIEGGAAQKDGRLQIGDRLLAVNNTNLQDVRHEEAVASLKNTSDMVYLKVAKPGSL
notes: domain: PDZ domains 1-2; also called NeDLG 1, 2
[4]
  Kd: 1 µM

B4: GST-DLG1 PDZ domain 2 (other, not shown: a dimerising Fc or GST)
chain: IQLIKGPKGLGFSIAGGVGNQHIPGDNSIYVTKIIEGGAAHKDGKLQIGDKLLAVNNVCLEEVTHEEAVTALKNTSDFVYLKVAKPTSMYMNDGN
HPV E6 33 (modified)
  Kd: 5 µM

B5: GST-TIP1 PDZ domain 1 (Table 9 insert) (other, not shown: a dimerising Fc or GST)
chain: QRVEIHKLRQGENLILGFSIGGGIDQDPSQNPFSEDKTDKGIYVTRVSEGGPAEIAGLQIGDKIMQVNGWDMTMVTHDQARKRLTKRSEEVVRLLVTRQSLQK
notes: also called TIP-1 1/1
[5]
  Kd: 5 µM

B6: GST-BAI-1 Associated Protein PDZ domain 2 (other, not shown: a dimerising Fc or GST)
chain: PSELKGKFIHTKLRKSSRGFGFTVVGGDEPDEFLQIKSLVLDGPAALDGKMETGDVIVSVNDTCVLGHTHAQVVKIFQSIPIGASVDLELCRGYPLPFDPDDPN
notes: also called BAI-1 (2/6)
[4]
  Kd: 3 µM
[6]
  binding result: no binding (tested: 10 uM peptide)
HPV E6 77 (modified)
  binding result: no binding (tested: 10 uM peptide)

B7: GST-Atrophin-1 Interacting Protein PDZ domain 2 (other)
chain: LSGATQAELMTLTIVKGAQGFGFTIADSPTGQRVKQILDIQGCPGLCEGDLIVEINQQNVQNLSHTEVVDILKDCPIGSETSLIIHRGGFF
[1]
  Kd: 0.8 µM

B8: GST-KIAA1526 PDZ domain 1 (other, not shown: a dimerising Fc or GST)
chain: PDSAGPGEVRLVSLRRAKAHEGLGFSIRGGSEHGVGIYVSLVEPGSLAEKEGLRVGDQILRVNDKSLARVTHAEAVKALKGSKKLVLSVYSAGRIPGGYVTNH
[1]
  Kd: 1 µM

B9: GST-Outer Membrane PDZ domain 1 (other, not shown: a dimerising Fc or GST)
chain: LLTEEEINLTRGPSGLGFNIVGGTDQQYVSNDSGIYVSRIKENGAAALDGRLQEGDKILSVNGQDLKNLLHQDAVDLFRNAGYAVSLRVQHRLQVQNGIHS
HPV E6 58 (modified) [7]
  Kd: 5 µM

B10: GST-MUPP1 PDZ domain 10 (other, not shown: a dimerising Fc or GST)
chain: LPGCETTIEISKGRTGLGLSIVGGSDTLLGAIIIHEVYEEGAACKDGRLWAGDQILEVNGIDLRKATHDEAINVLRQTPQRVRLTLYRDEAPYKE
HPV E6 58 (modified) [8]
  Kd: 5 µM

B11: GST-PSD95 PDZ domain 3 (other, not shown: a dimerising Fc or GST)
chain: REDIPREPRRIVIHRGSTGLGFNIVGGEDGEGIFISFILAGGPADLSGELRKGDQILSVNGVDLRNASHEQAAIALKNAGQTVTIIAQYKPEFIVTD
HPV E6 33 (modified)
  Kd: 5 µM

B12: GST-NeDLG PDZ domain 3 (other, not shown: a dimerising Fc or GST)
chain: ILLHKGSTGLGFNIVGGEDGEGIFVSFILAGGPADLSGELRRGDRILSVNGVNLRNATHEQAAAALKRAGQSVTIVAQYRPEEYSRFESKIHDLREQMMNSSMSSGSGSLRTSEKRSLE
HPV E6 58 (modified) [9]
  Kd: 5 µM

B13: GST-Atrophin-1 Interacting Protein PDZ domain 1 (other, not shown: a dimerising Fc or GST)
chain: REKPLFTRDASQLKGTFLSTTLKKSNMGFGFTIIGGDEPDEFLQVKSVIPDGPAAQDGKMETGDVIVYINEVCVLGHTHADVVKLFQSVPIGQSVNLVLCRGYP
notes: also called Atrophin-1 Inter; Prot; Atr-P (1/6)
HPV E6 33 (modified)
  Kd: 5 µM

B14: GST-NeDLG PDZ domain 2 (other, not shown: a dimerising Fc or GST)
chain: ITLLKGPKGLGFSIAGGIGNQHIPGDNSIYITKIIEGGAAQKDGRLQIGDRLLAVNNTNLQDVRHEEAVASLKNTSDMVYLKVAKPGSLE
[4]
  Kd: 3.5 µM

B15: GST-KIAA0147 PDZ domain 3 (other, not shown: a dimerising Fc or GST)
chain: ILEGPYPVEEIRLPRAGGPLGLSIVGGSDHSSHPFGVQEPGVFISKVLPRGLAARSGLRVGDRILAVNGQDVRDATHQEAVSALLRPCLELSLLVRRDPAEFIVTD
[1]
  Kd: 0.35 µM

B16: GST-DLG2 PDZ domain 2 (other, not shown: a dimerising Fc or GST)
chain: ISVVEIKLFKGPKGLGFSIAGGVGNQHIPGDNSIYVTKIIDGGAAQKDGRLQVGDRLLMVNNYSLEEVTHEEAVAILKNTSEVVYLKVGNPTTI
[2]
  Kd: 0.2 µM

B17: GST-KIAA1095 PDZ domain 1 (other, not shown: a dimerising Fc or GST)
chain: QGEETKSLTLVLHRDSGSLGFNIIGGRPSVDNHDGSSSEGIFVSKIVDSGPAAKEGGLQIHDRIIEVNGRDLSRATHDQAVEAFKTAKEPIVVQVLRRTPRTKMFTP
HPV E6 33 (modified)
  Kd: 5 µM

B18: GST-ERBIN PDZ domain 1 (other, not shown: a dimerising Fc or GST)
chain: QGHELAKQEIRVRVEKDPELGFSISGGVGGRGNPFRPDDDGIFVTRVQPEGPASKLLQPGDKIIQANGYSFINIEHGQAVSLLKTFQNTVELIIVREVSS
[1]
  Kd: 0.4 µM
